Experimental findings from US20100239578A1 are described below.

Test [1] addresses NOD-derived murine SIRPα (NOD allele of Sirpα) on NOD mouse macrophages (mouse (NOD strain)) (UniProt P97797). Put plainly: graded hCD47-Fc on NOD macrophages pre-treated with a monoclonal antibody to the SIRPα ectodomain (clustered), anti-human Fc-HRP colorimetric read-out.
Test [2] has the same target. Briefly: graded hCD47-Fc on NOD macrophages, clustered (anti-SIRPα mAb pre-treatment) against unclustered.
Test [3] has the same target. Put plainly: graded hCD47-Fc on unmanipulated fresh NOD macrophages (unclustered), anti-human Fc-HRP colorimetric read-out.
Test [4] shares this target. Put plainly: graded mCD47-Fc on adherent fresh macrophages, anti-human Fc-HRP colorimetric read-out.

pKd: −log10 of the molar value. Several values for one entry are separate records, joined by “and”; a condition that tells them apart may be missing. Equal values may be shown once.

In general, pKd refers to the negative decadic logarithm of the Kd, by convention in mol/L.

UniProt P97797, sequence (P97797 32-513): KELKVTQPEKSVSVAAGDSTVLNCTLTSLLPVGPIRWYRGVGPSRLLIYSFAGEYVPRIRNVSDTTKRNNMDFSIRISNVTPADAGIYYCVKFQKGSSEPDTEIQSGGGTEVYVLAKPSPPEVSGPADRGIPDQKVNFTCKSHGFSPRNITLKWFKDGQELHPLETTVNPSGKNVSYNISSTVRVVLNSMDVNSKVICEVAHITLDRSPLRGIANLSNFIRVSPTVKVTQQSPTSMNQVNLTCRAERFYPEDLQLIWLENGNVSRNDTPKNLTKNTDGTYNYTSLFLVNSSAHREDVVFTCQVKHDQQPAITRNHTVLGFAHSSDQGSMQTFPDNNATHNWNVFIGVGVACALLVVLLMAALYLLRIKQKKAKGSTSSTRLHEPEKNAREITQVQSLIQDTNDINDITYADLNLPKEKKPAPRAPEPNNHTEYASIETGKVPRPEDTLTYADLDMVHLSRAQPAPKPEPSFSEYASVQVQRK

Regarding “human CD47 IgV domain fused to human IgG Fc (hCD47-Fc), made in 293F cells (from UniProt Q08722 19-135) (Fc fusion)”, the figures for the pKd in test [1] and in test [3] were 9.80 and 8.80, respectively. For the same substance, the fold rise in affinity, clustered against unclustered in test [2] was greater than 10 fold.

In the case of “Mouse CD47-Fc (mCD47-Fc) fusion protein (from UniProt Q61735 19-133) (Fc fusion)”, in test [4], the fold lower Kd than the NOR SIRPα-mCD47 interaction is 4.7 fold and > 4 fold.
